Reference: PMC8049259, “Structure of the E. coli agmatinase, SPEB” (PLoS ONE, 2021)

Target: the molecule itself
Experiment: SEC; Superdex 200 10/300 GL, 30 mM Tris pH 7.0, 50 mM sodium chloride; oligomeric state judged from the elution profile

B1: E. coli agmatine ureohydrolase (agmatinase, SPEB) (enzyme, UniProt P60651 1-306, looked up)
chain: MSTLGHQYDNSLVSNAFGFLRLPMNFQPYDSDADWVITGVPFDMATSGRAGGRHGPAAIRQVSTNLAWEHNRFPWNFDMRERLNVVDCGDLVYAFGDAREMSEKLQAHAEKLLAAGKRMLSFGGDHFVTLPLLRAHAKHFGKMALVHFDAHTDTYANGCEFDHGTMFYTAPKEGLIDPNHSVQIGIRTEFDKDNGFTVLDACQVNDRSVDDVIAQVKQIVGDMPVYLTFDIDCLDPAFAPGTGTPVIGGLTSDRAIKLVRGLKDLNIVGMDVVEVAPAYDQSEITALAAATLALEMLYIQAAKKGE
notes: E. coli agmatinase SPEB, UniProt P60651, a 306 residue protein; cloned in pTHT (a pET-28 variant with a TEV protease site in place of the thrombin site); Two Mn2+ ions were modelled in each active site; also called agmatine amidinohydrolase; SPEB-THT (plasmid); source: E. coli BL21(DE3), purified (Ni-NTA, size exclusion chromatography)
  stoichiometry N: 6
